From KR20210116113A

Columns and labels:
[1] = molecular target: T1, c-Myc 펩타이드 (…); assay: ELISA, c-Myc peptide coated at 2 ug/ml, scFv at 1 ug/ml, anti-HA peroxidase detection
T1 sequence (peptide): MPLNVSFTSRNYDLD

[2] = molecular target: T1, c-Myc 펩타이드 (…); assay: ELISA, c-Myc peptide coated at 2 ug/ml, scFv at 2 ug/ml, anti-HA peroxidase detection
[3] = molecular target: T1, c-Myc 펩타이드 (…); assay: ELISA, c-Myc peptide coated at 2 ug/ml, scFv at 4 ug/ml, anti-HA peroxidase detection
[4] = molecular target: T1, c-Myc 펩타이드 (…); assay: ELISA, c-Myc peptide coated at 2 ug/ml, scFv at 0.5 ug/ml, anti-HA peroxidase detection
[5] = molecular target: T1, c-Myc 펩타이드 (…); assay: ELISA, c-Myc peptide coated at 2 ug/ml, scFv at 1 ug/ml (replicate), anti-HA peroxidase detection
[6] = molecular target: T1, c-Myc 펩타이드 (…); assay: ELISA, c-Myc peptide coated at 2 ug/ml, scFv at 2 ug/ml (replicate), anti-HA peroxidase detection
[7] = molecular target: T1, c-Myc 펩타이드 (…); assay: ELISA, c-Myc peptide coated at 2 ug/ml, scFv at 4 ug/ml (replicate), anti-HA peroxidase detection
[8] = molecular target: T1, c-Myc 펩타이드 (…); assay: ELISA, c-Myc peptide coated at 2 ug/ml, scFv at 0.5 ug/ml (replicate), anti-HA peroxidase detection

B1: clone 1D1 항체 (scFv, anti-c-Myc-tag 1D1) (scFv)
scFv: LTQPSSVSANLGETQDHCSGGGSNSAYGWFQQKSPGSAPVTLIYDNTNRPSNIPSRFSGSKSGSTATLTITGVQADDEAVYYCGSAGSSYVGIFGAGTTLTVLGQSSRSSSGGGSSGGGGSAVTLDESGGGLQTPGGGLSLVCKGSGFTFSSYQMNWIRQAPGKGLEFVAAINRFGNRTGYGAAVKGRATISRGDGQSTVRLQLNNLRAEDTATYYCAKAAYGYCGSGGWRDVAGTDAWGHGTEVIVSSTS
absorbance at 450 nm (antigen(peptide) coating) [1]: 0.808 OD 450nm | delta (absorbance at 450 nm minus background control) [1]: 0.756 OD 450nm | absorbance at 450 nm (antigen(peptide) coating) [2]: 1.31 OD 450nm | delta (absorbance at 450 nm minus background control) [2]: 1.26 OD 450nm | absorbance at 450 nm (antigen(peptide) coating) [3]: 2.15 OD 450nm | delta (absorbance at 450 nm minus background control) [3]: 2.1 OD 450nm | absorbance at 450 nm (antigen(peptide) coating) [4]: 0.415 OD 450nm | delta (absorbance at 450 nm minus background control) [4]: 0.363 OD 450nm | absorbance at 450 nm (antigen(peptide) coating) [5]: 0.788 OD 450nm | delta (absorbance at 450 nm minus background control) [5]: 0.735 OD 450nm | absorbance at 450 nm (antigen(peptide) coating) [6]: 1.3 OD 450nm | delta (absorbance at 450 nm minus background control) [6]: 1.25 OD 450nm | absorbance at 450 nm (antigen(peptide) coating) [7]: 2.17 OD 450nm | delta (absorbance at 450 nm minus background control) [7]: 2.11 OD 450nm | absorbance at 450 nm (antigen(peptide) coating) [8]: 0.431 OD 450nm | delta (absorbance at 450 nm minus background control) [8]: 0.379 OD 450nm
